In the domain aggregation screens of Martell et al. (2025):

Assay: soluble fraction after stress (log2 fold change); higher = more stays soluble; pooled small domains, quantitative proteomics
Details: stress: pH 4
Summary of the method: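 Values are on a log2 scale, where higher means more of the domain stayed soluble after pH 4 stress. They are fold changes in the soluble amount of each domain from pooled custom libraries, measured by high-throughput quantitative proteomics. The fold change is taken to reflect aggregation propensity.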

Row | Sequence | soluble fraction (log2)
1 | HMGITMFGQNLKKLRTSKNLSQSKLSKILGISSSTIGMYEQGRRFPDQTILTKIADFFDVSTDYLLGR | 0.339
2 | HMNILKKDKRLWDENNLNKPLLFELLENYDKEIFELLLTDKDIKAKFFVQAGESYVFKYDDFRFAIEQN | -1.75
3 | HMLPVDALFAQHPALIVTLGQTEKLKHGAAIRDWHFADGTYRVYSETGEFLLLGTVKGQILTTVKSFFE | -0.828
4 | HMAFRWQQIADTITSMIANGSYPRGSRLPTEAALADSFGVNRHTVRRAVAALRDTGLVQPRQGAGVFVIG | -0.103
5 | HMELNILELKSKERKISLEDHLYIKSFNFDNETNEYFYRLAFNSSKDLKNFKATINNDKTISIINFEI | -2.14
6 | HMEEKNNIIVSYIEDKISELEKASMYVPNENKEKLIMAFKNRNEDIDVIKTRIDTIFNNSVAAYKENME | -1.32
7 | HMIAVLEEGSHFRAVNDVTGKPFGPEMVIKNGQVTAVGKTISTKPKNLLGKKEGTKFVISGKQYVIKDI | -0.103
8 | HMSEQYEQIQLALKTLTQDEQDIVRLVVVEGASLRTAGKNLGVSAMTIQRRLKRALARLRDLLAS | -0.858
9 | HMAMESDELETLVDQLIVDHPDEWSRFVGGDDGDRKKMQGFFTGQIMKATKGQADGRAVAQLLGQKSA | -0.337
10 | HMAFEDYAGEYRSAADFAESLHEDTGTEIPESLRYYIDWQALARDMALNGEIMVFQTGFDEVHIFWS | -0.878
11 | HMSSVDLLSERERQVLARISRGMSNEEIAAELAITPRTVRNHLANIYGKIDVHSRAEAVVWARERGIT | -0.152
12 | HMSAPRRGETTAASLNLRAGPATDADILAQLPERTPLRVLQEDGEWLRVETHGNEGFVHRQFVAIPGDEP | -0.347
13 | HMNSIDIENELVKIIEKNGQPMSFDDLVFKLDSLYSTRYKFAKGYIRTIILNSNRIASIGKTSTYSLYKWN | -0.31
14 | HMTPQGALDYSRNAKYLRDQVTAINYLKQARLSLNTTDANYRQTLEQINQAIAKHNQALQQAGVQSQQLAT | 0.22
15 | HMEGMQATVTQITDEGITVRYVMNGQMVTRTLTSDEVAFVNRGQAVSDLAGAYRVGQTVWIY | -0.179
16 | HMSPEVEEISIDHLKAGMRILSDLRLPNGTLVAPKGSVVDAHFIKIVENYVISYFGNPFPDRIKVIM | 0.144
17 | HMIHKTDAINLGQRLLKSSLKEFDVSLKDIPNKTLMYILSEYKFNSLDDLYREIGLGNVIPKLVALRMAP | -0.436
18 | HMSDNYYSILGIETDATTDMIKRAYRRLSLELHPDRTKDNPILTEKYKKVNEAYGVLNDNDRKHIYDLQNI | -1.37
19 | HMETIVGIDPDSKKKIVLKKGIKGRPDYLSFNKKNYSLPSELKEKNVSLEQALEIINDKKSNKKKIK | 0.201

Row | Sequence | soluble fraction (log2)
20 | HMSSGNLESLLNKLHNEDYFVRLDAVKALGALGDPGAIDYLIEMLSENGIMRGWVANSLAALGEAQWKKII | -1.44
21 | HMHRAKRTKAQTQSSLESIEGIGPKTRKQLLVHFGGLAEVKAASVSELQKVKGISLDKAQKIYDFFHGS | 0.119
22 | HMSSVMMPDLTGESAIVAMERLQQLGLLPKVEEVDSYREPGIVLEQLPRAGEKIKRGRIAILKVSS | -0.131
23 | HMEIFYGDDRVYTVSLHGQNNFPFRKKTSDFDYGFEDGTGDEEYLRVLDVTLSRLENEQFDLLFFQAGV | -0.842
24 | HMVSKSDVQRALEKVEPVLRKLGGSTVEKVRVMARQATLVFEMLKSWWKGEIDLPWKTVAAMTVTLLYL | -0.322
25 | HMGQVSDENQLNKVIDEVIKNYPIQVEQFKAGKEPILQFLKGMVMKATEGSADPAVAEKLLRKKL | 0.0192
26 | HMTYSAFITARNKRIAEEYSVLLDSLNISNNVIYRLGSWVVEVNVSDHSRAIDEIYSYERSGRIDKV | -0.534
27 | HMATGGKIYIGMNDNGKVVGVSDADKLLEDIPNKVRDVLGIIVDVNLLEENGLKYIEIDVPPYSN | -0.477
28 | HMLPTLSLSVKIYKGEGDIALDLEEMVKAFDQLNFGSYPFSEKGVHGTNIVIRGNDKKHMEEAEDKVRSLT | -0.959
29 | HMGTSIMIIIVKPETKKERVNDLIHWIESQNLRTHLSTGDYSTIIGVIGDTSKLDSELIRGLDIVENVKRV | -1.24
30 | HMDGDFGMNLDWQPSEHFPTLARQAGIPADHITAEAIAEFRSYWIGQGKAMTQYQWDHKLLTNLKATKTR | 0.106
31 | HMKPSKYTLAIDSIPVHVTRKQMKSIRLRVTPLGEVRVSAPYGVKDSEIVEMVRSRKLWIESQQRA | -0.0235
32 | HMSRSLEIDVLVKALLEQDRRKFMLVTDGTADVTVRYNNALPSLFREGQGVVAEGLMDNGKFIATNVLAK | -0.793
33 | HMVTLPLLKRGHTGLPVKALQTLLVLRGMSVDVDGSFGEKTESAVRTFQTAAKILSDGEVGKDTWKALI | -0.911
34 | HMGAGLLEPEPLKIEIQETQERLQKLQKALERDTETADSKERIKRAIEAHKARISQLQGLIE | 0.0704
35 | HMEDWTPERFVGAFVSGGPALRDEILLAATKDLSHAQATRLLKLAEARGLVHRSQPGPSERVRFVVARK | -0.0732
36 | HMSKYLAFTVKKNDELLPFIEKALNGISHTKAKAILANGGAMVNKNTITQYNYPLTPGMTVEISRH | 0.187
37 | HMAPEQWYVLTSGQLPKGPYRLRHIVAMSKGDNWLVARKGAEQWTPLRHLPEFRQAQEANEYIQAIS | -0.122
